These are literature values, as cited in publication PMC2686754.

One data set addresses TGF-β1 (Homo sapiens) (UniProt P01137).
The next data set has as its target BMP4 (Homo sapiens) (UniProt P12644).
Sequence of UniProt P12644 (P12644 293-408): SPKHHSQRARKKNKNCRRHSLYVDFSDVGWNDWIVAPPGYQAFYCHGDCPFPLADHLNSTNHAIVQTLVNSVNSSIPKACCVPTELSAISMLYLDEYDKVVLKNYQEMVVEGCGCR

Sequence of UniProt P01137 (P01137 279-390): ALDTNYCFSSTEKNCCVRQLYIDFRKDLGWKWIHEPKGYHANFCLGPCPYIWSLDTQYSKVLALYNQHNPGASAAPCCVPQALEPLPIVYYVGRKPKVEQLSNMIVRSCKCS

A word on the Kd: it is the free concentration of one partner at which half of the binding sites on the other are occupied at equilibrium, for simple one-to-one binding. For CCN2 (from UniProt P29279), the Kd in the data set with TGF-β1 (Homo sapiens) is 30 nM; in the data set with BMP4 (Homo sapiens), 5 nM.
